According to patent US20100196919A1, “PEPTIDES, ANTIBODIES AND FRAGMENTS THEREOF FOR THE TREATMENT AND DIAGNOSTIC OF CELIAC DISEASE” (UNIVERSITÀ DEGLI STUDI DI VERONA, priority 2007, published 2010):

Key:
solid-phase desmoglein 1 = biological target: T1, solid-phase desmoglein 1 (Homo sapiens, UniProt Q02413); assay: Competitive ELISA with desmoglein 1-coated plates; assay type: binding; settings: liquid-phase competitor, 0.6-20 μg/ml
T1 construct: purchased MBL
T1 sequence (Q02413 50-1049): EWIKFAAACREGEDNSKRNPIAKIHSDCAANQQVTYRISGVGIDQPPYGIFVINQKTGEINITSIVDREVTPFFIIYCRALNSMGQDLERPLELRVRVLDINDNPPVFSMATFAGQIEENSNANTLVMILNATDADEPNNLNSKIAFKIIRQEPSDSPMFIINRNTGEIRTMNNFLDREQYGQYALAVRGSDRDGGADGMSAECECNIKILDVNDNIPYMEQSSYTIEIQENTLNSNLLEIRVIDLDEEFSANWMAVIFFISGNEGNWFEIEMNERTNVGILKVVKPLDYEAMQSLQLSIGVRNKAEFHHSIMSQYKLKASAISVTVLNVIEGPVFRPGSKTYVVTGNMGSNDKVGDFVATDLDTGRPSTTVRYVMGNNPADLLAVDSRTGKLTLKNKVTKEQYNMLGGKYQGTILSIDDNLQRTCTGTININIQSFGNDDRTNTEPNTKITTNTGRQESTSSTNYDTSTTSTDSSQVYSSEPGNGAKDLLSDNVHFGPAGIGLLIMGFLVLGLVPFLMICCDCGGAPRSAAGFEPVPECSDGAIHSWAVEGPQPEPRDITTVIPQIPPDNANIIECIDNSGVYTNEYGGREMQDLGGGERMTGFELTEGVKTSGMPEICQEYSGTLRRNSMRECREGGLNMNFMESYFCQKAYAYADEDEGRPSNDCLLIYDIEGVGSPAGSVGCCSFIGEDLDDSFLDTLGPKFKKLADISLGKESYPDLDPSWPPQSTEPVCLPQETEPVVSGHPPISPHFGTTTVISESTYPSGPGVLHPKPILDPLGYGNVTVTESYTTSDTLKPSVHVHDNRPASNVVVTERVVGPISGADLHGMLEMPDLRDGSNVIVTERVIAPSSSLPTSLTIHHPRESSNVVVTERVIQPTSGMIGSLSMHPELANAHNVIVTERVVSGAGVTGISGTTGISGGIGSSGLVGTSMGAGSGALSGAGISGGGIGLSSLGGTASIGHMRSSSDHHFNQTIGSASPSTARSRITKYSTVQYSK
Protocol: Desmoglein 1-coated plates were purchased from MBL (Woburn, Mass., United States). Serum samples in diluting buffer (serum dilution ranged from 1:400 to 1:800 corresponding to 50% maximal binding to solid-phase desmoglein 1) were pre-incubated with increasing concentrations of competitors (synthetic peptides and recombinant human tTG: 20, 10, 5, 2.5, 1.25, 0.6 μg/ml) for 1 h at 37° C. The mixture was then transferred to the desmoglein-coated plate. In this particular assay, the authors used the desmoglein 1 peptide as liquid-phase competitor, since the only liquid-phase recombinant desmoglein 1 available is an Fc chimera.

solid-phase HSP60 = biological target: T2, solid-phase HSP60 (Homo sapiens, UniProt P10809); assay: Competitive ELISA on solid-phase HSP60; assay type: binding; settings: pre-incubation with competitor
T2 construct: purchased Stressgen
Protocol: The direct and competitive ELISA for antibody binding to the synthetic peptides have already been described elsewhere. Briefly, the synthetic peptides were used at a concentration of 20 μg/ml in PBS to coat polystyrene plates (Nunc, Roskilde, Denmark). Plates were then blocked for 1 h with PBS 3% BSA. Serum samples were diluted in diluting buffer (PBS 1% BSA 0.05% Tween) and incubated on the plates for 3 h at room temperature. Plates were then washed twice with PBS 1% Tween and twice with PBS. Bound antibodies were detected by an alkaline phosphatase-conjugated anti-human IgA antiserum (1:1,000 in diluting buffer) (Sigma, St. Louis, Mo., United States) or with an alkaline phosphatase-conjugated anti-human IgG antiserum (1:2,000 in diluting buffer) (Sigma). In some experiments, an alkaline phosphatase-conjugated anti-rabbit IgG antiserum (1:2,000 in diluting buffer) (Sigma) was also used. The secondary reagents were incubated overnight at 4° C.; plates were then washed twice with PBS/Tween and twice with PBS. The alkaline phosphatase substrate (Sigma) diluted in bicarbonate buffer was then added to the wells and the plates read after 30 min or 1 h at a spectrophotometer set at 450 nm. For the competitive assay, the amount of antibody (or serum dilution) that gave 50% of the maximum binding to the antigen on the solid phase was pre-incubated for 1 h at 37° C. with different amounts of competitors (20, 10, 5, 2.5, 1.25, 0.6 μg/ml) or buffer (diluting buffer as the one used in the direct ELISA) and then transferred to the antigen-coated plates. The assay was then carried on as the direct binding assay. For the competitive ELISAs presented in this paper in particular, the following experimental conditions were used. (1) Competitive ELISA using tTG-coated plates. Plates coated with human recombinant tTG were purchased from Eurospital. […] Results are expressed as: […]

solid-phase tTG = biological target: T3, solid-phase tTG (Homo sapiens, UniProt P21980); assay: Competitive ELISA using tTG-coated plates; assay type: binding; settings: pre-incubation with competitor, 0.6-20 μg/ml
T3 construct: purchased Eurospital
T3 sequence (P21980 1-687): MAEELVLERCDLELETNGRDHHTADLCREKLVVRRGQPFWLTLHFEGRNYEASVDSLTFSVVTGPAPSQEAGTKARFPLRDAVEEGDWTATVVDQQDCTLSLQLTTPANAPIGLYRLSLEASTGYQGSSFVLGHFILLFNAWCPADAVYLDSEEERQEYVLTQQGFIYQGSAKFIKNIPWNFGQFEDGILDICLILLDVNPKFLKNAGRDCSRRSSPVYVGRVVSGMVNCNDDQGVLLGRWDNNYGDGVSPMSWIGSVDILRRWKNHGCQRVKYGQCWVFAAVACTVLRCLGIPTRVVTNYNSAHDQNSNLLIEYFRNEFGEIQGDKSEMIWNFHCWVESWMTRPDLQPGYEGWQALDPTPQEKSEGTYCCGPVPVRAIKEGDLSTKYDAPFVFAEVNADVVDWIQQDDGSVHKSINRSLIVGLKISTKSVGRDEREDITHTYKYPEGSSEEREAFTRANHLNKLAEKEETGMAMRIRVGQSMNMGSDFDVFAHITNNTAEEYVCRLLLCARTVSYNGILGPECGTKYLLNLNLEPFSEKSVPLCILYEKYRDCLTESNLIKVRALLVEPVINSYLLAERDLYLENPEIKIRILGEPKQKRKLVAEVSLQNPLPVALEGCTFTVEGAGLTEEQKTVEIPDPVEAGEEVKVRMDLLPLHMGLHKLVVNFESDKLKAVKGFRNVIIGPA
Protocol: (§1) The direct and competitive ELISA for antibody binding to the synthetic peptides have already been described elsewhere. Briefly, the synthetic peptides were used at a concentration of 20 μg/ml in PBS to coat polystyrene plates (Nunc, Roskilde, Denmark). Plates were then blocked for 1 h with PBS 3% BSA. Serum samples were diluted in diluting buffer (PBS 1% BSA 0.05% Tween) and incubated on the plates for 3 h at room temperature. Plates were then washed twice with PBS 1% Tween and twice with PBS. Bound antibodies were detected by an alkaline phosphatase-conjugated anti-human IgA antiserum (1:1,000 in diluting buffer) (Sigma, St. Louis, Mo., United States) or with an alkaline phosphatase-conjugated anti-human IgG antiserum (1:2,000 in diluting buffer) (Sigma). In some experiments, an alkaline phosphatase-conjugated anti-rabbit IgG antiserum (1:2,000 in diluting buffer) (Sigma) was also used. The secondary reagents were incubated overnight at 4° C.; plates were then washed twice with PBS/Tween and twice with PBS. The alkaline phosphatase substrate (Sigma) diluted in bicarbonate buffer was then added to the wells and the plates read after 30 min or 1 h at a spectrophotometer set at 450 nm. For the competitive assay, the amount of antibody (or serum dilution) that gave 50% of the maximum binding to the antigen on the solid phase was pre-incubated for 1 h at 37° C. with different amounts of competitors (20, 10, 5, 2.5, 1.25, 0.6 μg/ml) or buffer (diluting buffer as the one used in the direct ELISA) and then transferred to the antigen-coated plates. The assay was then carried on as the direct binding assay. For the competitive ELISAs presented in this paper in particular, the following experimental conditions were used. (1) Competitive ELISA using tTG-coated plates. Plates coated with human recombinant tTG were purchased from Eurospital. Serum samples in diluting buffer (serum dilution ranged from 1:400 to 1:1,600 corresponding to 50% maximal binding to solid-phase tTG) were pre-incubated with increasing concentration of competitors (synthetic peptides or recombinant human tTG: 20, 10, 5, 2.5, 1.25, 0.6 μg/ml) for 1 h at 37° C. The mixture was then transferred to the tTG-coated plate. The remainder of the assay was performed as the direct binding assay. Results are expressed as: […]

solid-phase TLR4 peptide = biological target: T4, solid-phase TLR4 peptide (Homo sapiens, UniProt O00206); assay: Competitive ELISA on solid-phase TLR4 peptide; assay type: binding; settings: liquid-phase competitor
T4 construct: made in house; host or cells: chemical solid-phase synthesis (FMOC)
Protocol: as §1

[1] = test system: T84 human intestinal epithelial cell line; assay: [3H] mannitol flux across T84 monolayers; assay type: cell-based; settings: pre-incubation of antibodies with the substance; T84, 3 h
Protocol: T84 cells obtained from the American Type Culture Collection (Manassas, Va., United States) were grown in a 5% CO2 humidified incubator at 37° C. on 162-cm^2 flasks (Corning Costar, Acton, Mass., United States) with media containing a 1:1 mixture of Ham's F-12 nutrient mixture and DMEM supplemented with 6% heat-inactivated fetal bovine serum, 15 mM HEPES, 14.3 mM NaHCO3, and antibiotics (penicillin and streptomycin)-antimycotics (pH 7.4). Cells were passaged weekly on reaching confluence. For experiments, cells were plated onto collagen-coated permeable supports, where they were fed every 3 d and used from days 7-14 (within fifth passage).
Confluent T84 monolayers grown on 4.7 cm^2 transwell inserts were incubated in HEPES-phosphate-buffered Ringer solution (HPBR, containing 135 mM NaCl, 5 mM KCl, 3.33 mM NaHPO4, 1 mM CaCl2, 1 mM MgCl2, 10 mM glucose, and 5 mM HEPES [pH 7.4]) for 30 min, followed by treatment with basolaterally applied Igs (20 μg/ml) in the presence of [^3H] mannitol (5 μCi/ml) in the basolateral compartment. Apical solution was sampled every 30 min (to detect the presence of [^3H] mannitol) and exchanged with fresh HPBR buffer solution for a total of 4 h. The collected apical samples were placed in vials containing scintillation fluid and analyzed for the presence of [^3H] mannitol by scintillation counter.

Human monocytes = assay: Stimulation of monocytes, FACS analysis of activation markers; assay type: cell-based; settings: monocytes incubated overnight, antibody preparations 20 μg/ml, LPS 1 μg/ml
Protocol: Human monocytes were isolated from normal donors and incubated overnight at a density of 1×10^6 cells/ml in RPMI 10% FCS in 24-well plates in the presence of the antibody preparations (20 μg/ml) or lipopolysaccharide (LPS) (1 μg/ml) (Sigma). The medium used and all the antibody preparations were treated with Detoxi-gel endotoxin-removing columns (Pierce). Presence of LPS contaminants in the antibody preparation and buffers as well as in the culture medium was assessed using the HEK-Blue LPS Detection Kit (Invivogen); all the antibody preparation and buffers used throughout the study were devoided of LPS contaminants. Monocytes were then used for fluorescence-activated cell sorting (FACS) analysis.
Cells were incubated with R-phycoerythrin directly conjugated anti-CD1, -CD83, and -CD86 antibodies for 30 min on ice. […] Samples were run on a FACScan flow cytometer (Becton Dickinson, Mountain View, Calif., United States). All the antibodies used were purchased from Immunotech (Marseille, France).

T2 sequence (P10809 27-573): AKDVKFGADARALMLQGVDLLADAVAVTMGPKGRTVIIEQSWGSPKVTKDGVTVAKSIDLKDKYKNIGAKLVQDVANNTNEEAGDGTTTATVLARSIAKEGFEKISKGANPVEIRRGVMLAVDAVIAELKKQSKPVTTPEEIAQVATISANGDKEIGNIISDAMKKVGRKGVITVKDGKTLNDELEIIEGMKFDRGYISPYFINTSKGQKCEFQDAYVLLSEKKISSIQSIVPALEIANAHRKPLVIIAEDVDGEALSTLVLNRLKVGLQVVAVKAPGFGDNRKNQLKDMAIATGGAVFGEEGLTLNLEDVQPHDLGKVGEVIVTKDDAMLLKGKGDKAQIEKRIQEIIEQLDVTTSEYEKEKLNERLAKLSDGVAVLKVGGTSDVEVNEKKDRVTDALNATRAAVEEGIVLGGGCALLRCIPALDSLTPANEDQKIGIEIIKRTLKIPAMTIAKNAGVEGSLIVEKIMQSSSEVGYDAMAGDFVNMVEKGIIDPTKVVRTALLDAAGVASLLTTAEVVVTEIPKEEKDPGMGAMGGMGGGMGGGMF

LSSLGGTASIGH [desmoglein 1 peptide]
inhibition of binding of anti-celiac peptide antibodies to solid-phase desmoglein 1 (solid-phase desmoglein 1): inhibited

RIRVGQSMNMGS [tTG peptide]
inhibition of antibody binding to solid-phase HSP60 by liquid-phase competitor (solid-phase HSP60): inhibited
inhibition of antibody binding to solid-phase tTG by liquid-phase competitor (solid-phase tTG): inhibited

VIQVGGSNVLDI [VP-7 peptide]
inhibition of antibody binding to solid-phase HSP60 by liquid-phase competitor (solid-phase HSP60): inhibited
inhibition of binding of anti-celiac peptide antibodies to solid-phase desmoglein 1 (solid-phase desmoglein 1): inhibited
inhibition of binding of anti-celiac peptide antibodies to solid-phase TLR4 peptide (solid-phase TLR4 peptide): Inhibition
inhibition of antibody binding to solid-phase tTG by liquid-phase competitor (solid-phase tTG): inhibited

VLKMAGNSFQEN [TLR4 peptide]
inhibition of binding of anti-celiac peptide antibodies to solid-phase desmoglein 1 (solid-phase desmoglein 1): inhibited
inhibition of binding of anti-celiac peptide antibodies to solid-phase TLR4 peptide (solid-phase TLR4 peptide): Inhibition

VTLPKDSDVELP [irrelevant control peptide]
blocking of the effect of anti-celiac peptide antibodies on cell permeability [1]: not
inhibition of binding of anti-celiac peptide antibodies to solid-phase TLR4 peptide (solid-phase TLR4 peptide): not
inhibition of antibody binding to solid-phase tTG by liquid-phase competitor (solid-phase tTG): not

VVKVGGSSSLGW [celiac peptide]
inhibition of antibody binding to solid-phase HSP60 by liquid-phase competitor (solid-phase HSP60): inhibited
blocking of the effect of anti-celiac peptide antibodies on cell permeability [1]: blocked
inhibition of binding of anti-celiac peptide antibodies to solid-phase desmoglein 1 (solid-phase desmoglein 1): inhibited
inhibition of binding of anti-celiac peptide antibodies to solid-phase TLR4 peptide (solid-phase TLR4 peptide): Inhibition
inhibition of antibody binding to solid-phase tTG by liquid-phase competitor (solid-phase tTG): inhibited

lipopolysaccharide [LPS]
Percentage of positive cells, CD83 (Human monocytes; medium alone 9.4%): 45%
Percentage of positive cells, CD40 (Human monocytes; medium alone 62.3%): 89%

B1: human recombinant tTG: commercially available recombinant human tissue transglutaminase used as competitor (protein, UniProt P21980 2-687, looked up)
Protein-glutamine …: AEELVLERCDLELETNGRDHHTADLCREKLVVRRGQPFWLTLHFEGRNYEASVDSLTFSVVTGPAPSQEAGTKARFPLRDAVEEGDWTATVVDQQDCTLSLQLTTPANAPIGLYRLSLEASTGYQGSSFVLGHFILLFNAWCPADAVYLDSEEERQEYVLTQQGFIYQGSAKFIKNIPWNFGQFEDGILDICLILLDVNPKFLKNAGRDCSRRSSPVYVGRVVSGMVNCNDDQGVLLGRWDNNYGDGVSPMSWIGSVDILRRWKNHGCQRVKYGQCWVFAAVACTVLRCLGIPTRVVTNYNSAHDQNSNLLIEYFRNEFGEIQGDKSEMIWNFHCWVESWMTRPDLQPGYEGWQALDPTPQEKSEGTYCCGPVPVRAIKEGDLSTKYDAPFVFAEVNADVVDWIQQDDGSVHKSINRSLIVGLKISTKSVGRDEREDITHTYKYPEGSSEEREAFTRANHLNKLAEKEETGMAMRIRVGQSMNMGSDFDVFAHITNNTAEEYVCRLLLCARTVSYNGILGPECGTKYLLNLNLEPFSEKSVPLCILYEKYRDCLTESNLIKVRALLVEPVINSYLLAERDLYLENPEIKIRILGEPKQKRKLVAEVSLQNPLPVALEGCTFTVEGAGLTEEQKTVEIPDPVEAGEEVKVRMDLLPLHMGLHKLVVNFESDKLKAVKGFRNVIIGPA
blocking of the effect of anti-celiac peptide antibodies on cell permeability [1]: blocked
inhibition of binding of anti-celiac peptide antibodies to solid-phase desmoglein 1 (solid-phase desmoglein 1): inhibited
